From the supplement of paper PMC9112550, “Optimization of the antimicrobial peptide Bac7 by deep mutational scanning” (BMC Biology, 2022)

Test system: Escherichia coli TOP10
Assay: shrunken log2 fold change of peptide-encoding DNA abundance (4.5 h post-induction vs induction); higher = less antimicrobial activity (less host growth inhibition)
Details: time post-induction: 4.5 h; library: site-saturation at positions 5, 18, 19, 20
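Also: peptides expressed intracellularly from a pBAD plasmid library in pooled LB shake-flask culture, induced with 0.3% L-arabinose, DNA abundance read by NGS, three biological replicates, DESeq2 with apeglm shrinkage.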

Sequence: RRIRGRPPRLPRPRPRPSQYPRP
- shrunken log2 fold change: -0.034

Sequence: RRIRIRPPRLPRPRPRPEISPRP
- shrunken log2 fold change: -0.481

Sequence: RRIRCRPPRLPRPRPRPSADPRP
- shrunken log2 fold change: 0.0289

Sequence: RRIRYRPPRLPRPRPRPHCQPRP
- shrunken log2 fold change: -0.297

Sequence: RRIRDRPPRLPRPRPRPKGNPRP
- shrunken log2 fold change: 0.0802

Sequence: RRIRNRPPRLPRPRPRPDKVPRP
- shrunken log2 fold change: -0.00145

Sequence: RRIRPRPPRLPRPRPRPEFLPRP
- shrunken log2 fold change: -0.101

Sequence: RRIRLRPPRLPRPRPRPYEFPRP
- shrunken log2 fold change: -0.111

Sequence: RRIRFRPPRLPRPRPRPYWLPRP
- shrunken log2 fold change: -0.234

Sequence: RRIRPRPPRLPRPRPRPQPQPRP
- shrunken log2 fold change: 0.26

Sequence: RRIRDRPPRLPRPRPRPAINPRP
- shrunken log2 fold change: -0.117

Sequence: RRIRYRPPRLPRPRPRPSSWPRP
- shrunken log2 fold change: -0.284

Sequence: RRIRLRPPRLPRPRPRPQWCPRP
- shrunken log2 fold change: -0.282

Sequence: RRIRPRPPRLPRPRPRPKIAPRP
- shrunken log2 fold change: -0.1

Sequence: RRIRNRPPRLPRPRPRPLQDPRP
- shrunken log2 fold change: -0.247

Sequence: RRIRVRPPRLPRPRPRPCYFPRP
- shrunken log2 fold change: -0.594

Sequence: RRIRMRPPRLPRPRPRPEPLPRP
- shrunken log2 fold change: 0.277

Sequence: RRIRYRPPRLPRPRPRPVAMPRP
- shrunken log2 fold change: -0.464

Sequence: RRIRGRPPRLPRPRPRPNFSPRP
- shrunken log2 fold change: 0.078

Sequence: RRIRIRPPRLPRPRPRPAARPRP
- shrunken log2 fold change: 0.278

Sequence: RRIRRRPPRLPRPRPRPYVNPRP
- shrunken log2 fold change: -0.0793

Sequence: RRIRCRPPRLPRPRPRPRPEPRP
- shrunken log2 fold change: 0.44

Sequence: RRIRSRPPRLPRPRPRPFPEPRP
- shrunken log2 fold change: -0.22

Sequence: RRIRIRPPRLPRPRPRPTWYPRP
- shrunken log2 fold change: -0.668

Sequence: RRIRGRPPRLPRPRPRPNYTPRP
- shrunken log2 fold change: -0.338

Sequence: RRIRIRPPRLPRPRPRPYRLPRP
- shrunken log2 fold change: 0.00643

Sequence: RRIRQRPPRLPRPRPRPQKSPRP
- shrunken log2 fold change: 0.0118

Sequence: RRIRKRPPRLPRPRPRPNETPRP
- shrunken log2 fold change: 0.118

Sequence: RRIRNRPPRLPRPRPRPHTRPRP
- shrunken log2 fold change: 0.0907

Sequence: RRIRQRPPRLPRPRPRPIFSPRP
- shrunken log2 fold change: 0.0638

Sequence: RRIRCRPPRLPRPRPRPFWVPRP
- shrunken log2 fold change: 0.0496

Sequence: RRIRCRPPRLPRPRPRPKQLPRP
- shrunken log2 fold change: -0.0668

Sequence: RRIRFRPPRLPRPRPRPKFTPRP
- shrunken log2 fold change: 0.012

Sequence: RRIRLRPPRLPRPRPRPAKRPRP
- shrunken log2 fold change: 0.0374

Sequence: RRIRIRPPRLPRPRPRPLQKPRP
- shrunken log2 fold change: -0.0683

Sequence: RRIRHRPPRLPRPRPRPRPLPRP
- shrunken log2 fold change: 0.255

Sequence: RRIRERPPRLPRPRPRPDDGPRP
- shrunken log2 fold change: -0.269

Sequence: RRIRFRPPRLPRPRPRPPGTPRP
- shrunken log2 fold change: 0.316

Sequence: RRIRVRPPRLPRPRPRPDIFPRP
- shrunken log2 fold change: -0.171

Sequence: RRIRRRPPRLPRPRPRPHLTPRP
- shrunken log2 fold change: -0.132

Sequence: RRIRFRPPRLPRPRPRPQAIPRP
- shrunken log2 fold change: 0.043

Sequence: RRIRRRPPRLPRPRPRPTFPPRP
- shrunken log2 fold change: 0.444

Sequence: RRIRDRPPRLPRPRPRPQERPRP
- shrunken log2 fold change: 0.0671

Sequence: RRIRNRPPRLPRPRPRPMNEPRP
- shrunken log2 fold change: 0.0961

Sequence: RRIRNRPPRLPRPRPRPPWMPRP
- shrunken log2 fold change: -0.00995

Sequence: RRIRSRPPRLPRPRPRPADNPRP
- shrunken log2 fold change: 0.00328

Sequence: RRIRQRPPRLPRPRPRPYQCPRP
- shrunken log2 fold change: -0.263

Sequence: RRIRHRPPRLPRPRPRPDHQPRP
- shrunken log2 fold change: 0.0561

Sequence: RRIRLRPPRLPRPRPRPDWSPRP
- shrunken log2 fold change: -0.124

Sequence: RRIRQRPPRLPRPRPRPLAPPRP
- shrunken log2 fold change: 0.38

Sequence: RRIRTRPPRLPRPRPRPQGWPRP
- shrunken log2 fold change: 0.704

Sequence: RRIRLRPPRLPRPRPRPDWHPRP
- shrunken log2 fold change: -0.264

Sequence: RRIRTRPPRLPRPRPRPPDSPRP
- shrunken log2 fold change: -0.0615

Sequence: RRIRWRPPRLPRPRPRPHYIPRP
- shrunken log2 fold change: -0.468

Sequence: RRIRNRPPRLPRPRPRPGFMPRP
- shrunken log2 fold change: -0.0522

Sequence: RRIRGRPPRLPRPRPRPHEKPRP
- shrunken log2 fold change: 0.0144

Sequence: RRIRSRPPRLPRPRPRPCARPRP
- shrunken log2 fold change: 0.00657

Sequence: RRIRIRPPRLPRPRPRPYCPPRP
- shrunken log2 fold change: -0.175

Sequence: RRIRKRPPRLPRPRPRPLKQPRP
- shrunken log2 fold change: 0.146

Sequence: RRIRWRPPRLPRPRPRPPHIPRP
- shrunken log2 fold change: 0.696

Sequence: RRIRHRPPRLPRPRPRPSEQPRP
- shrunken log2 fold change: -0.178

Sequence: RRIRMRPPRLPRPRPRPLCAPRP
- shrunken log2 fold change: 1.24

Sequence: RRIRYRPPRLPRPRPRPLGFPRP
- shrunken log2 fold change: -0.662

Sequence: RRIRFRPPRLPRPRPRPICFPRP
- shrunken log2 fold change: -0.293

Sequence: RRIRPRPPRLPRPRPRPMDFPRP
- shrunken log2 fold change: -0.115

Sequence: RRIRKRPPRLPRPRPRPCTQPRP
- shrunken log2 fold change: -0.0701

Sequence: RRIRARPPRLPRPRPRPCNAPRP
- shrunken log2 fold change: 0.0237

Sequence: RRIRRRPPRLPRPRPRPGLWPRP
- shrunken log2 fold change: 0.622

Sequence: RRIRKRPPRLPRPRPRPLLEPRP
- shrunken log2 fold change: 0.241

Sequence: RRIRWRPPRLPRPRPRPYPPPRP
- shrunken log2 fold change: -0.332

Sequence: RRIRWRPPRLPRPRPRPMEIPRP
- shrunken log2 fold change: -0.0287

Sequence: RRIRLRPPRLPRPRPRPKPGPRP
- shrunken log2 fold change: 0.396

Sequence: RRIRTRPPRLPRPRPRPFSQPRP
- shrunken log2 fold change: -0.0652

Sequence: RRIRKRPPRLPRPRPRPYNFPRP
- shrunken log2 fold change: -0.384

Sequence: RRIRFRPPRLPRPRPRPCTGPRP
- shrunken log2 fold change: 0.0368

Sequence: RRIRKRPPRLPRPRPRPHCCPRP
- shrunken log2 fold change: -0.0219

Sequence: RRIRGRPPRLPRPRPRPYIIPRP
- shrunken log2 fold change: -0.158

Sequence: RRIRDRPPRLPRPRPRPWFPPRP
- shrunken log2 fold change: -0.234

Sequence: RRIRYRPPRLPRPRPRPWLPPRP
- shrunken log2 fold change: 0.1

Sequence: RRIRFRPPRLPRPRPRPILPPRP
- shrunken log2 fold change: -0.188

Sequence: RRIRVRPPRLPRPRPRPWHMPRP
- shrunken log2 fold change: -0.672

Sequence: RRIRGRPPRLPRPRPRPHFQPRP
- shrunken log2 fold change: -0.099

Sequence: RRIRHRPPRLPRPRPRPYIRPRP
- shrunken log2 fold change: -0.0464

Sequence: RRIRIRPPRLPRPRPRPRKSPRP
- shrunken log2 fold change: -0.169

Sequence: RRIRARPPRLPRPRPRPEPAPRP
- shrunken log2 fold change: 1.43

Sequence: RRIRQRPPRLPRPRPRPHELPRP
- shrunken log2 fold change: -0.00752

Sequence: RRIRYRPPRLPRPRPRPMQPPRP
- shrunken log2 fold change: -0.0124

Sequence: RRIRTRPPRLPRPRPRPQCYPRP
- shrunken log2 fold change: -0.256

Sequence: RRIRSRPPRLPRPRPRPMNYPRP
- shrunken log2 fold change: -0.162

Sequence: RRIRDRPPRLPRPRPRPSEMPRP
- shrunken log2 fold change: -0.0135

Sequence: RRIRFRPPRLPRPRPRPIVPPRP
- shrunken log2 fold change: 0.0537

Sequence: RRIRRRPPRLPRPRPRPTNRPRP
- shrunken log2 fold change: 0.282

Sequence: RRIRPRPPRLPRPRPRPEGGPRP
- shrunken log2 fold change: 0.329

Sequence: RRIRMRPPRLPRPRPRPFRDPRP
- shrunken log2 fold change: 0.00601

Sequence: RRIRYRPPRLPRPRPRPNCPPRP
- shrunken log2 fold change: -0.272

Sequence: RRIRYRPPRLPRPRPRPLWTPRP
- shrunken log2 fold change: -0.563

Sequence: RRIRWRPPRLPRPRPRPGSGPRP
- shrunken log2 fold change: 0.497

Sequence: RRIRHRPPRLPRPRPRPWWPPRP
- shrunken log2 fold change: -0.0995

Sequence: RRIRERPPRLPRPRPRPEQKPRP
- shrunken log2 fold change: -0.017

Sequence: RRIRCRPPRLPRPRPRPSLAPRP
- shrunken log2 fold change: 0.133

Sequence: RRIRVRPPRLPRPRPRPMESPRP
- shrunken log2 fold change: 0.156

Sequence: RRIRRRPPRLPRPRPRPDPHPRP
- shrunken log2 fold change: 0.296

Sequence: RRIRIRPPRLPRPRPRPWKIPRP
- shrunken log2 fold change: -0.0311

Sequence: RRIRCRPPRLPRPRPRPSDAPRP
- shrunken log2 fold change: -0.0145

Sequence: RRIRDRPPRLPRPRPRPAAGPRP
- shrunken log2 fold change: 0.793

Sequence: RRIRCRPPRLPRPRPRPFQDPRP
- shrunken log2 fold change: -0.169

Sequence: RRIRRRPPRLPRPRPRPVWNPRP
- shrunken log2 fold change: 0.0425

Sequence: RRIRLRPPRLPRPRPRPYEHPRP
- shrunken log2 fold change: -0.583

Sequence: RRIRMRPPRLPRPRPRPYAMPRP
- shrunken log2 fold change: -0.155
